One substance from patent publication US20240166705A1 can be followed below.

Experiment [1] concerns the target XENP37827 (IL18×Fab-Fc fusion with WT-4CS IL18 and a silent Fv) (human). In words: cell-based or functional assay.
Experiment [2] deals with XENP38865 (IL18×Fab-Fc fusion, IL18 4CS/K53A, silent Fv) (human). In words: cell-based or functional assay.
XENP38865 (IL18×Fab-Fc fusion, IL18 4CS/K53A, silent Fv) (human), sequence (Q14116 other isoform, or with tags, fused parts or gaps K53A K53A): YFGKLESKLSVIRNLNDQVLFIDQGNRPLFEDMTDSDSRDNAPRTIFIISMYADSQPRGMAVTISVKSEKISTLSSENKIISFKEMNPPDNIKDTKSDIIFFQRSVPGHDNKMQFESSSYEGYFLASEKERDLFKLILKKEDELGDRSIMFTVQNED

XENP37827 (IL18×Fab-Fc fusion with WT-4CS IL18 and a silent Fv) (human), sequence (Q14116 other isoform, or with tags, fused parts or gaps): as the sequence (Q14116 other isoform, or with tags, fused parts or gaps K53A K53A) above, with A53K counted along it

On to “IL18 binding protein (IL18BP) (from UniProt O95998 31-194)”, for which the figures for the IC50 of dose dependent inhibition of KG-1 cell activation (induction of PD-L1 expression) by IL18BP at fixed concentration (10 nM) of the IL18 fusion in experiment [1] and in experiment [2] were 0.0055 µM and 0.0887 µM, respectively.
